Experiments:
Assay in all cases: SPR
[1] = target: recombinant GP38 of CCHFV Oman-199809166 (CCHFV Oman-199809166, UniProt A0A0U3C6Q7, strain)
[2] = target: recombinant GP38 of CCHFV 200406546-Turkey (CCHFV 200406546-Turkey, UniProt A0A0U2SQZ0, strain)
[3] = target: recombinant GP38 of CCHFV Kosova-Hoti (CCHFV Kosova-Hoti, UniProt B2BSL7, strain)

Measured: Kd

B1: ADI-58048 IgG (antibody, V domains shown)
VH: QLQLQESGPGLVKPSETLSLTCTVSGGSITTSHYYWGWIRQPPGKGLEWVGSMYYSGGIYYNPSLKGRVTISVDTSKNQFSLKLSSVTAADTAVYYCALADAPDDAFDIWGQGTMVTVSS
VL: DIQMTQSPSSLSAFVGDRVTITCRASQSISSYLNWYQQKPGKAPKLLIYAASTLQSGVPSRFSGSGSGTDFTLTISSLQSEDFATYYCQESYSIPFTFGPGTKVDIK
< 0.398 nM: [1] | [2] | [3]
